koff and Kd data for 2 molecules are collected here from publication PMC7846742 (2021).

This assay addresses AviTag-His6-OAZ-GSY-SPM-Ctag (wt, with C175A) (human | Neisseria meningitidis …, UniProt Q9JYV5 414-657, biotin on the AviTag). In words: SPR. (SPR reads the build-up and loss of mass on a sensor chip optically.)

B1: His6-ODC-Ctag (human Ornithine Decarboxylase) (enzyme)
chain: NNFGNEEFDCHFLDEGFTAKDILDQKINEVSSSDDKDAFYVADLGDILKKHLRWLKALPRVTPFYAVKCNDSKAIVKTLAATGTGFDCASKTEIQLVQSLGVPPERIIYANPCKQVSQIKYAANNGVQMMTFDSEVELMKVARAHPKAKLVLRIATDDSKAVCRLSVKFGATLRTSRLLLERAKELNIDVVGVSFHVGSGCTDPETFVQAISDARCVFDMGAEVGFSMYLLDIGGGFPGSEDVKLKFEEITGVINPALDKYFPSDSGVRIIAEPGRYYVASAFTLAVNIIAKKIVLKEQTGSDDEDESSEQTFMYYVNDGVYGSFNCILYDHAHVKPLLQKRPKPDEKYYSSSIWGPTCDGLDRIVERCDLPEMHVGDWMLFENMGAYTVAAASTFNGFQRPTIYYVMSGPAWQLMQQFQ
Broadly, the koff is a measure of how fast the partners let go of each other. Regarding B1, the koff was 0.0028 s⁻¹.

B2: ODC ΔN 4KR (enzyme)
chain: DCHFLDEGFTAKDILDQKINEVSSSDDKDAFYVADLGDILKKHLRWLKALPRVTPFYAVKCNDSRAIVRTLAATGTGFDCASRTEIQLVQSLGVPPERIIYANPCKQVSQIRYAANNGVQMMTFDSEVELMKVARAHPKAKLVLRIATDDSKAVCRLSVKFGATLRTSRLLLERAKELNIDVVGVSFHVGSGCTDPETFVQAISDARCVFDMGAEVGFSMYLLDIGGGFPGSEDVKLKFEEITGVINPALDKYFPSDSGVRIIAEPGRYYVASAFTLAVNIIAKKIVLKEQTGSDDEDESSEQTFMYYVNDGVYGSFNCILYDHAHVKPLLQKRPKPDEKYYSSSIWGPTCDGLDRIVERCDLPEMHVGDWMLFENMGAYTVAAASTFNGFQRPTIYYVMSGPAWQLMQQFQNPDFPPEVEEQDASTLPVSCAWESGMKRHRAACASASIN
As a reminder, the Kd is a measure of binding affinity in units of concentration. Lower therefore signals a tighter complex. In turn, B2 yielded a Kd of 22 nM and a koff of 0.0024 s⁻¹.
